Here are results for 1 substance from US20240101687A1.

In assay [1] the target is human IGF1R on cells (human) (UniProt P08069). In words: FACS on JIMT-1 cells (FL1-H), anti-human FITC; MFI of 2nd Ab only 1.89, untreated 1.36.
The target is the same in assay [2]. Nature of the assay: FACS on MCF-7 cells (FL1-H), anti-human FITC; MFI of 2nd Ab only 4.53, untreated 2.51.
Assay [3] has the same target. Nature of the assay: FACS on BT474 cells (FL1-H), anti-human FITC; MFI of 2nd Ab only 1.93, untreated 1.8.

IMC-A12 (antibody), sequence (VH): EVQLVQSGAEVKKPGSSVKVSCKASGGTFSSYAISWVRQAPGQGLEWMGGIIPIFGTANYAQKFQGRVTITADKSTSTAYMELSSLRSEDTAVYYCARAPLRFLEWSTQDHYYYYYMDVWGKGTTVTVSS
IMC-A12 (antibody), sequence (VL): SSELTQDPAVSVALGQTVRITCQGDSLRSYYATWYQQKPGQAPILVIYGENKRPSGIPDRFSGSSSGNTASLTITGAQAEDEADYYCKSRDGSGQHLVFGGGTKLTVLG

IMC-A12 (antibody): the figures for the MFI in assay [1], in assay [2] and in assay [3] were 23, 40.1 and 18.3, respectively.
